Assay results: article doi:10.1101/2022.01.09.475535

Molecular target: SF3B1 N-terminal region, residues 147-462 (SFB1^147-462) (human) (UniProt O75533)
Experiment: ITC

Chain of SF3B1 N-terminal region, residues 147-462 (SFB1^147-462) (human) (O75533 147-462): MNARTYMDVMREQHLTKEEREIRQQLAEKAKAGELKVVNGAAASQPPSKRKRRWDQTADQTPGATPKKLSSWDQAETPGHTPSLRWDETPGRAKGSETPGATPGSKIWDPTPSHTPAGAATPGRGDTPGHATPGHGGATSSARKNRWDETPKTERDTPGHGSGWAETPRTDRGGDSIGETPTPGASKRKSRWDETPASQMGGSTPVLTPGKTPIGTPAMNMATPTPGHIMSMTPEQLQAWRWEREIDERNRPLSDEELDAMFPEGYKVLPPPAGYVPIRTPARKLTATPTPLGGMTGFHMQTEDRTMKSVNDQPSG

stoichiometry N (U2AF2^12UL per SF3B1 ULM region): 2
Substance: U2AF2^12UL (nearly full-length U2AF2, residues 141-471) (domain or fragment)
